# Results from US20150093758.
# Tests used:
# [1] = tested on: PSA anchor ligand biotin-PEG5-cyclic(CVFAHNYDYLVC)
# [2] = tested on: PSA capture agent biligand biotin-PEG5-cyclic(CVFAHNYDYLVC)-Tz5-Gllffk
substance,measurement,setting,value
"human prostate specific antigen (free PSA, Scripps Laboratories #P0725)",enzyme activity of PSA against the chromogenic substrate Suc-Arg-Pro-Tyr-pNA (absorbance at 405 nm),[1],3 fold
same,enzyme activity of PSA against the chromogenic substrate Suc-Arg-Pro-Tyr-pNA (absorbance at 405 nm),[2],3 fold
